How the values were obtained:
Test in all cases: SPR, Dectin-1 immobilized, 1:1 model
murine annexin A1 = biological target: T1, murine annexin A1 (murine, UniProt P10107 2-346)
T1 construct: Recombinant protein; also called mAnxA1
T1 sequence: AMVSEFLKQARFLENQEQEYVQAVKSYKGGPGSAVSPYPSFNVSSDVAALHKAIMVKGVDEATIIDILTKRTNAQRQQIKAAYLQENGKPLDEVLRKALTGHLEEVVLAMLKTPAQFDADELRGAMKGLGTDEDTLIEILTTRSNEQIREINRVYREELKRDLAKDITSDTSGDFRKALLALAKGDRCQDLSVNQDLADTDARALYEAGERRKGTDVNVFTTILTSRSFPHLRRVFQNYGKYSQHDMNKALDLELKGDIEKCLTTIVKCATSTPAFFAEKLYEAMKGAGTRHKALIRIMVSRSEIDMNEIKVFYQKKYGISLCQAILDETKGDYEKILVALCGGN

[1] = biological target: T2, murine annexin A1 core domain (murine, UniProt P10107 41-344)
T2 construct: Recombinant core domain; also called mAnxA1 core; core annexin A1 domain
T2 sequence: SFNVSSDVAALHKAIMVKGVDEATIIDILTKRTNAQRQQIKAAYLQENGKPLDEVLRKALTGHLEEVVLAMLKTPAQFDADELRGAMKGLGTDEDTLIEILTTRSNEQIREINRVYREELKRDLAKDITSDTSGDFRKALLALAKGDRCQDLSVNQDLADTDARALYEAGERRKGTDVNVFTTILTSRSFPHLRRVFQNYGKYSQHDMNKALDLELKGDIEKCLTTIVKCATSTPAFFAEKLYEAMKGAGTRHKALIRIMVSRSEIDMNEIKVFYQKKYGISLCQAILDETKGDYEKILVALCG

murine annexin A5 = biological target: T3, murine annexin A5 (murine, UniProt P48036 2-319)
T3 construct: Recombinant protein; also called mAnxA5
T3 sequence: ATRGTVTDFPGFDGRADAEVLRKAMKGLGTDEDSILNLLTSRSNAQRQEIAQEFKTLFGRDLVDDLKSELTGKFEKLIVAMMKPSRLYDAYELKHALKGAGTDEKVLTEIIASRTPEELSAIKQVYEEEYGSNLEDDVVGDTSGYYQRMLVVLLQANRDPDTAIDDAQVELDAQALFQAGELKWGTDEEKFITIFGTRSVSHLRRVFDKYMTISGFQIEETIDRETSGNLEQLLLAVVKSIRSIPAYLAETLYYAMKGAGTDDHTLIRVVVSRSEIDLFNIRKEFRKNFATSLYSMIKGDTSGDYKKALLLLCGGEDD

murine annexin A13 = biological target: T4, murine annexin A13 (murine, UniProt Q99JG3 2-317)
T4 construct: Recombinant protein; also called mAnxA13
T4 sequence: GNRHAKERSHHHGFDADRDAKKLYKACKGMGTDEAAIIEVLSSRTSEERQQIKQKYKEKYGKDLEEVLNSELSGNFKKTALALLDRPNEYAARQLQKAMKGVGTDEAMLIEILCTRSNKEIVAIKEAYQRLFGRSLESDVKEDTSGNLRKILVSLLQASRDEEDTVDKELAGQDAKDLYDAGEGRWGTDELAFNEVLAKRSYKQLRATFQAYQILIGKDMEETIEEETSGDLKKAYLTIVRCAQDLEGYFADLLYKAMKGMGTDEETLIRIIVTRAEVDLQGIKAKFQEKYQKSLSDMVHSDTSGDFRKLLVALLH

Kd (murine annexin A1): ~100 nM | Kd [1]: ~100 nM | Kd (murine annexin A5): ~100 nM | Kd (murine annexin A13): ~100 nM
B1: Dectin-1 (receptor)
chain: GHNSGRNPEEKDNFLSRNKENHKPTESSLDEKVAPSKASQTTGGFSQPCLPNWIMHGKSCYLFSFSGNSWYGSKRHCSQLGAHLLKIDNSKEFEFIESQTSSHRINAFWIGLSRNQSEGPWFWEDGSAFFPNSFQVRNTAPQESLLHNCVWIHGSEVYNQICNTSSYSICEKEL

From US20210230238A1 (DEUTSCHES KREBSFORSCHUNGSZENTRUM STIFTUNG DES FFENTLICHEN …, published 2021)
